In publication PMC10804987 one finds response data, which are given here for four substances.

For this experiment, the target named is PRRSV-2 nucleocapsid (N) protein with Myc tag. Nature of the experiment: ELISA. The note with it: mutated N-His as coating antigen; N-Myc added; parent: est. 0.97; read off a plot.

Take “PRRSV-2 nucleocapsid (N) protein with His tag Q109A”: the response came to 0.7 OD450nm.
Consider “PRRSV-2 nucleocapsid (N) protein with His tag S105A”, for which the response is 0.28 OD450nm.
As for “PRRSV-2 nucleocapsid (N) protein with His tag S105A; T108A; Q109A”, the response worked out at 0.2 OD450nm.
The value for “PRRSV-2 nucleocapsid (N) protein with His tag T108A” was 1 OD450nm.
